This is an account of results in patent publication US11351270B2, “Junctophilin-2 fragments and uses therefor” (University of Iowa Research Foundation, priority 2016, dated 2022).

The test system of data set [1] is JP2-KD cardiomyocytes. The experiment in a line: Confocal Ca2+ imaging in JP2-KD cardiomyocytes after adenoviral expression. In kind it is cell-based, mouse. An excerpt:
Specifically, conditional shJP2 mice (provided by Dr. Wehrens) (van Oort et al., 2011) were crossed with mice carrying the cardiac-specific α-myosin heavy chain promoter upstream of Cre (% MHC-Cre, also FVB-Tg(Myh6-cre)2182Mds/J, The Jackson Laboratory). The shJP2 mice were maintained on a C57BL/6 background for more than 10 generations. The αMHC-Cre mice were maintained on an FVB background. PCR was used to genotype the offspring. The near complete depletion of JP2 protein in JP2-KD (αMHC-Cre X shJP2) hearts has been reported recently (Chen et al., 2013). JP2-KD mice were sacrificed at 2 months of age for isolation and culture of ventricular cardiomyocytes as described below.
(§1) Genecarrior-1 (Epoch Lab) was used to transfect plasmids into HEK293T cells. Isolation and culture of cardiomyocytes were performed as described previously (Guo et al., 2012). […] Ca^2+ Imaging experiments were performed 40 hours after adenoviral infection.
(§2) Cells were loaded with Rhod-2AM at 37° C. for 20 minutes, followed by washing with Tyrode's solution at room temperature for 15 minutes before Ca^2+ imaging. Confocal images were acquired using a ×63, 1.3 numerical aperture oil immersion objective mounted on a Zeiss LSM 510 confocal microscope. Confocal line scanning was used to record Ca^2+ signals. Steady-state Ca^2+ transients were recorded in Tyrode's solution containing 1.8 mM Ca^2+ under field stimulation of 1 Hz. At least five steady-state transients for each cell were analyzed and averaged to represent Ca^2+ signals of the cell. Ca^2+ imaging data were analyzed by using a home-complied software, CaTeasy, which is coded in MATLAB 2013a (Mathworks). Briefly, the program normalizes Ca^2+ transient images on a column-by-column basis (512 columns/image). The characteristic parameters of normalized transients were detected automatically. The firing time of every scanning pixel was detected column by column on the basis of the maximum local variability of pixel intensity. The profile of the point-to-point firing time was indicated by a red line overlapping on the Ca^2+ image. Index of desynchronization, defined by the mean absolute deviation of firing time of each scanning pixel (with every 8 pixels binned), was used to evaluate the dyssynchrony of Ca^2+ transients. This automated software for calcium transient analysis is available upon request.

For data set [2], the system named is WT cardiomyocytes. The experiment in a line: Confocal Ca2+ imaging in WT cardiomyocytes after adenoviral expression. Format: cell-based, mouse. The following applies: 1-Hz field stimulation; overexpression in WT cardiomyocytes. As for the experimental part: as §1
as §2, with “Index of desynchronization, defined by the mean absolute deviation of firing time of each scanning pixel (with every 8 pixels binned), was used to evaluate the dyssynchrony of Ca^2+ transients. This automated software for calcium transient analysis is available upon request.” left out

Data set [3] deals with RyR2 and Cav1.2. The experiment in a line: Coimmunoprecipitation with E-C coupling channels. Format: binding, mouse. The following applies: anti-HA immunoprecipitation. An excerpt:
FIGS. 5A-H. JP2 truncations are nonfunctional in regulating Ca^2+ transients. A) An antibody against the HA tag was used to reveal the localization of adenoviral expression of tagged full-length JP2 and truncations, as indicated, in adult wild-type cardiomyocytes. All the three version of JP2 can be localized in the striated pattern. B) Full-length JP2 and JP2(1-565) forms complexes with RyR2 and Cav1.2 In vivo. An antibody against HA was used for immunoprecipitation […]. The RyR2 and Cav1.2 that were pulled down were detected by Western blot analysis. […] IB, immunoblot. C) Adenovirus-mediated expression of full-length JP2, FLAG-JP2(1-565)-HA, and JP2(566-end)-HA in JP2-KD) cardiomyocytes. D) Representative steady-state Ca^2+ transients under 1-Hz field stimulation. The fluorescence intensity (F) of Ca^2+ imaging was normalized to the baseline (FO). The red lines overlapping on Ca^2+ imaging show the profile of the moment of Ca^2+ transient firing on the scanning line in a point-by-point way. A straighter line means better synchronization of the Ca^2+ transients. Note that expression of full-length JP2, but not JP2 truncations, improves the amplitude and synchronization of Ca^2+ transients. E-G) Summary of Ca^2+ transient amplitude, index of desynchronization (mean absolute deviation of firing time), and duration of 50% decay (T5) (n=68, 70, 70, and 52 for Ad-Empty, Ad-JP2, […], and Ad-JP2(566-end), respectively). Only full-length JP2 Improves the amplitude, synchronization, and decay of Ca^2+ transients. H) Summary of SR Ca^2+ content, which was assessed by caffeine-induced SR Ca^2+ release (n=17, 17, 17, and 12 for Ad-Empty, Ad-JP2, Ad-JP2(1-565), and Ad-JP2(566-end), respectively). **, p<0.01 versus indicated groups; N.S., not significant.
Cleavage at the primary calpain proteolysis site (Arg-565/Thr-566) splits apart the C-terminal SR-binding TM domain and N-terminal plasma membrane-binding MORN domains of JP2. […]

The subject of data set [4] is cultured adult murine cardiomyocytes. The experiment in a line: Affymetrix Genechip analysis of cultured cardiomyocytes. The following applies: vs Ad-Empty control. In kind it is cell-based, mouse. As for the experimental part: Genecarrior-1 (Epoch Lab) was used to transfect plasmids into HEK293T cells. Isolation and culture of cardiomyocytes were performed as described previously (Guo et al., 2015). Adenoviruses were applied at a multiplicity of infection (MOI) of about 100, which results in transfection of almost all cells as confirmed by immunostaining of eptiope tags.
Microarray assay was performed by Affymetrix GeneChip® Mouse Genome 430 2.0 according to the standard procedure of cRNA preparation and Genechip hybridization. The R package limma (version 3.22.7) (Ritchie et al., 2015) was used for processing microarray data and identifying differentially expressed genes (the cutoff of significance was p value<0.01). David (Huang et al., 2009) was used for gene enrichment (GO) analysis. Ingenuity pathway analysis (IPA, Qiagen) was used for pathway analysis.

B1: full-length JP2: full-length junctophilin-2, FLAG/HA tagged, expressed by adenovirus (protein, UniProt Q9BR39 1-696, looked up)
chain: MSGGRFDFDDGGAYCGGWEGGKAHGHGLCTGPKGQGEYSGSWNFGFEVAGVYTWPSGNTFEGYWSQGKRHGLGIETKGRWLYKGEWTHGFKGRYGIRQSSSSGAKYEGTWNNGLQDGYGTETYADGGTYQGQFTNGMRHGYGVRQSVPYGMAVVVRSPLRTSLSSLRSEHSNGTVAPDSPASPASDGPALPSPAIPRGGFALSLLANAEAAARAPKGGGLFQRGALLGKLRRAESRTSVGSQRSRVSFLKSDLSSGASDAASTASLGEAAEGADEAAPFEADIDATTTETYMGEWKNDKRSGFGVSERSSGLRYEGEWLDNLRHGYGCTTLPDGHREEGKYRHNVLVKDTKRRMLQLKSNKVRQKVEHSVEGAQRAAAIARQKAEIAASRTSHAKAKAEAAEQAALAANQESNIARTLARELAPDFYQPGPEYQKRRLLQEILENSESLLEPPDRGAGAAGLPQPPRESPQLHERETPRPEGGSPSPAGTPPQPKRPRPGVSKDGLLSPGAWNGEPSGEGSRSVTPSEGAGRRSPARPATERMAIEALQAPPAPSREPEVALYQGYHSYAVRTTPPEPPPFEDQPEPEVSGSESAPSSPATAPLQAPTLRGPEPARETPAKLEPKPIIPKAEPRAKARKTEARGLTKAGAKKKARKEAALAAEAEVEVEEVPNTILICMVILLNIGLAILFVHLLT
modifications: full-length FLAG/HA tags; adenoviral expression
notes: full-length junctophilin-2, FLAG/HA tagged, expressed by adenovirus
In the case of B1, in data set [1] (1-Hz field stimulation), the “decay phase (T50) of Ca2+ transients” value is listed as “shortened decay phase” and the “synchronization of Ca2+ transients (index of desynchronization)” value is reported as “increased synchronization”. Moreover, the “increase of Ca2+ transient amplitude” value in data set [1] (1-Hz field stimulation, adenoviral expression) is given as 50%. Also, the “SR Ca2+ content” value in data set [1] (caffeine-induced SR Ca2+ release) is “not influenced”. Also, in data set [2], the “kinetics of steady-state Ca2+ transients and SR Ca2+ loading” value is recorded as “did not alter”. In addition, in data set [3], the “interaction with RyR2 and Cav1.2” value is on record as “interact”. Besides, in data set [4], the “significantly induced known genes (p<0.01)” value is 96 genes and the “significantly repressed known genes (p<0.01)” value turned out to be 264 genes.
